Laboratory results taken from publication PMC4357711.

T1: DDX1 (DDX1-728) (Homo sapiens, UniProt Q92499 1-728)
T1 sequence: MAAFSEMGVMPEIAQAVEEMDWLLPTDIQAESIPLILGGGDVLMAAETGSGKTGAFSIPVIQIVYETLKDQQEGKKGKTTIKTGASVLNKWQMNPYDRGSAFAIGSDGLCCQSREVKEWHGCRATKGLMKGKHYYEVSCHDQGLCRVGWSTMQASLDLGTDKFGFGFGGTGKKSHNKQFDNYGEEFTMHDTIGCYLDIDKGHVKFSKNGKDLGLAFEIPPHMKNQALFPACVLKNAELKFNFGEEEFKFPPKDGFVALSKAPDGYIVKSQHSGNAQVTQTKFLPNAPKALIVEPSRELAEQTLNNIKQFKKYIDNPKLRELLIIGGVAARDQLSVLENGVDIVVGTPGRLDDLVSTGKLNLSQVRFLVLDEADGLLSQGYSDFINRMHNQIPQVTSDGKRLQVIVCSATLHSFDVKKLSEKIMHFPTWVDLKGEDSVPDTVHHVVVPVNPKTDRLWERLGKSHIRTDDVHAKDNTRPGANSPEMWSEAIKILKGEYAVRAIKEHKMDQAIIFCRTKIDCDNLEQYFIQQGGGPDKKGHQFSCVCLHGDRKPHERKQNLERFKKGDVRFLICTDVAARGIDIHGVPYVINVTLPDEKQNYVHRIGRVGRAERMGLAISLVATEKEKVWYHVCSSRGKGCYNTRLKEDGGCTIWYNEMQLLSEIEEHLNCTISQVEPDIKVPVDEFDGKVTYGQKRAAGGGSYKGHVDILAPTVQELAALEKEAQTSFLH


Tests used:
DDX1 (DDX1-728) [1] = target: T1, DDX1 (DDX1-728); assay: mantdADP displacement fluorescence titration, global fit
DDX1 (DDX1-728) [2] = target: T1, DDX1 (DDX1-728); assay: EMSA

| Binder | Kd (DDX1 (DDX1-728) [1]) [nM] | binding result (DDX1 (DDX1-728) [2]) |
| --- | --- | --- |
| AAAAAAAAAA (ssRNA) [10mer polyA RNA] | 360 ± 120 |  |
| UUUUUUUUUU (ssRNA) [10mer polyU RNA, FAM] |  | binds |
| AGCACCGUAAAGA (ssRNA) [13mer mixed sequence RNA, FAM] |  | binds |
